Consider one molecule from US11110182B2, “Multifunctional RNA nanoparticles and methods for treating cancer and therapeutic resistant cancer” (University of Cincinnati, priority 2016, dated 2021).

Data set [1] can be described thus: Stability analyses (RNase A, 10% FBS DMEM, 8 M urea) by native PAGE. The class given is in vitro ADME. Conditions: 37° C. From the text:
FIG. 1A) The scheme of the pRNA-HER2apt-siMED1 (p-HER2-siMED1) (SEQ ID NO: 15) structure. FIG. 1B) The p1 and p2 strands of pRNA-HER2apt-siMED1_were transcribed using an in vitro RNA transcription system and separated in 8% denatured PAGE gel. FIG. 1C) pRNA-HER2apt-siMED1 nanoparticles were generated by annealing equal molar of strands p1 and p2, and subjected to 8% native PAGE gel electrophoresis. FIG. 1D) DLS assay of hydrodynamic size of pRNA-HER2apt-siMED1 nanoparticle. FIG. 1E) The Tm value of pRNA-HER2apt-siMED1 nanoparticle determined by TGGE assay. FIG. 1F) The atomic force microscopy (AFM) images of pRNA-HER2apt-siMED1 nanoparticles. FIG. 1G) The stability of control unmodified and 2′-F modified pRNA nanoparticles was examined by 8% native PAGE gel electrophoresis after RNase A, 10% FBS-supplemented DMEM medium and 8M urea treatments for the indicated time at 37° C.
Cell culture. Human breast cancer luciferase-overexpressing BT474 and MDA-MB-231 cells were maintained in DMEM medium (Hyclone, Thermo Scientific) supplemented with 10% fetal bovine serum (FBS, Sigma) and 1% penicillin/streptomycin (Corning) at 37° C. in a humidified atmosphere with 5% CO2.^53 • Generation of pRNA nanoparticles. The two strands of pRNA were synthesized with the DNA templates, which were amplified with overlapping primers (Sigma) by PCR methods, using a T7 promoter-controlled in vitro RNA transcription system as previously described^33 (Table 1). All the CTP and UTP used for synthesis of the pRNA nanoparticles were 2′-fluoro modified, except the control unmodified pRNA nanoparticles used in the stability assays. […] The hydrodynamic diameter and Tm value of pRNA nanoparticles were determined using dynamic light scattering and TGGE assay, respectively, as previously described.^54 The AFM imaging of the pRNA nanoparticles was performed at the University of Nebraska Medical Center imaging facility as previously reported.^55 Briefly, the pRNA nanoparticles (5 μL) were deposited on APS modified mica ^56 for a total of 2 min of incubation time. […]

The target in data set [2] is T1, recombinant Dicer enzyme (Homo sapiens, UniProt Q9UPY3).
T1 construct: purchased Genlantis
Description: Digestion with recombinant Dicer enzyme, siRNA release. The settings on record: 1 μg pRNA nanoparticles, 37° C., 12 h. The class given is biochemical. On the procedure: FIG. 7A) Six HER2-targeting RNA aptamers were selected from previous literatures, and their secondary structures were predicted using Srna-fold software. FIG. 7B) Six p2 strands containing the six different HER2 RNA aptamers were synthesized and annealed with the same p1 strand to generate six different pRNA-HER2apt-MED1 siRNA nanoparticles, respectively, followed by examination using 8% native PAGE gel electrophoresis. FIG. 7C) BT474 cells were treated with above pRNA nanoparticles for 48 h, and then MED1 protein level was determined by western blotting. […] FIG. 7D) 1 μg pRNA nanoparticles were incubated with recombinant Dicer enzyme (Genlantis) at 37° C. for 12 h, the product was separated by 8% native PAGE gel.
Next, the pRNA nanoparticles were digested with recombinant Dicer enzyme (Genlantis) ^34 to confirm the release of siRNAs as indicated by the generation of 21-23 bp small RNAs after digestion (FIG. 7D).

T1 sequence (Q9UPY3 whole entry): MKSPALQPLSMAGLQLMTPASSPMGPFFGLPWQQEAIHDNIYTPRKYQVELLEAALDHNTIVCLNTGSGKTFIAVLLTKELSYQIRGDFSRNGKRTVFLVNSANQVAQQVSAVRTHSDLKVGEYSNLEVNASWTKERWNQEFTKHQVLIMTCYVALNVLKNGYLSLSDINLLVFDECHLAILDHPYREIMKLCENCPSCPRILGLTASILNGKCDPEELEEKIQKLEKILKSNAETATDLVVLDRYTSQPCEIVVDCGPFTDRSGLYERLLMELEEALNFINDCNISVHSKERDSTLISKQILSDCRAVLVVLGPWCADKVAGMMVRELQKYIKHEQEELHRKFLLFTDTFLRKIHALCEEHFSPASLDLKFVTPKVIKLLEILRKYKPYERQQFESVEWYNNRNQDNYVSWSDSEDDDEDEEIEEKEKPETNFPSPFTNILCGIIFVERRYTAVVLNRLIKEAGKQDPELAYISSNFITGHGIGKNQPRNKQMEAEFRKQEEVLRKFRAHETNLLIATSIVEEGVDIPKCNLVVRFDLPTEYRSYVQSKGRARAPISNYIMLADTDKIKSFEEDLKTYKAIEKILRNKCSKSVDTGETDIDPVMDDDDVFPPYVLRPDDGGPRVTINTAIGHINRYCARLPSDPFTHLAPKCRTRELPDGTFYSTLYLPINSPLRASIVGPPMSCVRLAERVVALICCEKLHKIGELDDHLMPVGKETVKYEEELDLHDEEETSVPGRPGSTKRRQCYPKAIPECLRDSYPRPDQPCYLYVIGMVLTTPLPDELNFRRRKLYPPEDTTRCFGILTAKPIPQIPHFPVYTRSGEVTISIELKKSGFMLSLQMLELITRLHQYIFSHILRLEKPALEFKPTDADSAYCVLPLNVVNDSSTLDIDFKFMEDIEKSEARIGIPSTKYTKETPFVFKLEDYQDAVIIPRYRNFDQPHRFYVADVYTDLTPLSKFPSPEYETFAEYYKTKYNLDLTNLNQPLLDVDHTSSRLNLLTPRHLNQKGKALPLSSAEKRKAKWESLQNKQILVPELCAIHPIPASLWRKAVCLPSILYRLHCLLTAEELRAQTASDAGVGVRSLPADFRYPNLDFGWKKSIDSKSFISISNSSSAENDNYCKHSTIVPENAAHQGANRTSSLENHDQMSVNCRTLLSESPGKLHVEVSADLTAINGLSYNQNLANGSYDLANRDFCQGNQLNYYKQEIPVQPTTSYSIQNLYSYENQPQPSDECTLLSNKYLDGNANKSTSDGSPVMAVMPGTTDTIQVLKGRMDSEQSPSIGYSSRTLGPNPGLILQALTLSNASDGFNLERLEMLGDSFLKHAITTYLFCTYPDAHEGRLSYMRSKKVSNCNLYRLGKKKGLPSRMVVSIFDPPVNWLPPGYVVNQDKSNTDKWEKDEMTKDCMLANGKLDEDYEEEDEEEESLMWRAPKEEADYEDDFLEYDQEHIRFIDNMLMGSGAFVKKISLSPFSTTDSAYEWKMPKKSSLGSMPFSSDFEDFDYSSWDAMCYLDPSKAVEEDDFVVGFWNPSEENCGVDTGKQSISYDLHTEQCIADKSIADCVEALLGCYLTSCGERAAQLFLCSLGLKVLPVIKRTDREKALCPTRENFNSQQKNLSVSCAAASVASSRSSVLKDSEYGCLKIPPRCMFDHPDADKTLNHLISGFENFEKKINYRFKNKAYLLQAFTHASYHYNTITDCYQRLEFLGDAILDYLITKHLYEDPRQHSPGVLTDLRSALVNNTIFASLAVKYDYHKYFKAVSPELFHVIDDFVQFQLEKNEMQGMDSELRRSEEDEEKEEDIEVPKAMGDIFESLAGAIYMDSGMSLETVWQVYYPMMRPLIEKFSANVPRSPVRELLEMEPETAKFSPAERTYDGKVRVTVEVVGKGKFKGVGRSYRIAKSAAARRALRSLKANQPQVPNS

B1: pRNA-HER2apt-siMED1: 3-WJ pRNA nanoparticle bearing a HER2-targeting RNA aptamer and two different MED1 siRNAs; strands p1 SEQ ID NO: 3, p2 SEQ ID NO: 4 (nucleic acid)
chain 1: GGACAGUGAAAGUGAGUCAAAGGAUCAAUCAUGGCCAAAGAUGUUACUUUGAGAGCCUU
chain 2: GGCUCUCAAAGUAACAUCUAAGGCCAUGUGUAUGUGGGGGGAGGACGAUGCGGUCUGCUGUGCUUGAUAUGCCCCAGACGACUCGCCCCCCACAUACUUUGUUGAUCCAAUGACUCACUUUCACUGUCCUU
modifications: 2'-F modification; third strand may lack entry; pRNA-HER2apt-siMED1, p1; pRNA-HER2apt-siMED1, p2
On to B1, for which the “resistance to RNase A treatment” value in data set [1] (10 μg/mL RNase A) is listed as “resistant”. For the same molecule, the “structure in 8M urea” value in data set [1] (8M urea) is recorded as “maintained their structure”. Besides, in data set [1], the “stability in 10% FBS-supplemented DMEM medium” value is “highly stable”. The “small RNAs generated after Dicer digestion (release of siRNAs)” value in data set [2] is reported as 21-23 bp.
